Results reported in article PMC5519978 (2017).
No end group written: not given here.

T1: BRG1 AT-BRD (AT-hook and bromodomain of human BRG1, residues 1434-1569), wild type (human, UniProt P51532 1434-1569)
T1 chain: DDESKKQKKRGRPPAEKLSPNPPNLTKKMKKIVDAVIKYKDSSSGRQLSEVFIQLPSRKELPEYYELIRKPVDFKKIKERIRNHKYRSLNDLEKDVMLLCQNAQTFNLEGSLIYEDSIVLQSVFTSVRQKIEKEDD

T2: hBRM-A AT-BRD (AT-hook and bromodomain of human BRM, long isoform, residues 1358-1508) (human, UniProt P51531 1358-1508, 15N-labelled)
T2 chain: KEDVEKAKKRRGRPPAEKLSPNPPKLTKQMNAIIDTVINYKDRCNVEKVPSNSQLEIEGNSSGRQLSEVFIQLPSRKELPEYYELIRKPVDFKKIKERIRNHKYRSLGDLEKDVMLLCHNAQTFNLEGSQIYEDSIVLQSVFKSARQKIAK

T3: hBRM-A BRD (human BRM bromodomain, long splice isoform, residues 1379-1508) (human, UniProt P51531 1379-1508, 15N-labelled)
T3 chain: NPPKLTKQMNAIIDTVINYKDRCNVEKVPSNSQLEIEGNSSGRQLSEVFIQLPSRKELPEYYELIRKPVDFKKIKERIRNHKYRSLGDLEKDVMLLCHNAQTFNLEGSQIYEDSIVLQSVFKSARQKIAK

T4: hBRM-B AT-BRD (AT-hook and bromodomain of human BRM, short isoform, residues 1358-1399 and 1418-1508) (human, UniProt P51531 1358-1399; P51531 1418-1508, 15N-labelled)
T4 chain: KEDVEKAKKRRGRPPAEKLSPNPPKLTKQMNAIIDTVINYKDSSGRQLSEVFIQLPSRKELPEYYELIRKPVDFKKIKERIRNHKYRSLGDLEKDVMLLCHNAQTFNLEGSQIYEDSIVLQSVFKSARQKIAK

B1: hBRM-B BRD (human BRM bromodomain, short splice isoform, residues 1379-1399 and 1418-1508) (domain or fragment)
chain: NPPKLTKQMNAIIDTVINYKDSSGRQLSEVFIQLPSRKELPEYYELIRKPVDFKKIKERIRNHKYRSLGDLEKDVMLLCHNAQTFNLEGSQIYEDSIVLQSVFKSARQKIAK
modifications: 15N-labelled
B2: H3(23-34)K27ac histone peptide (peptide)
chain: KAARK(Ac)SAPATGG
B3: H4(15-25)K20ac histone peptide (peptide)
peptide: AKRHRK(Ac)VLRDN
B4: H3(9-19)K14ac histone peptide (peptide)
peptide: KSTGGK(Ac)APRKQ
B5: H3(18-28)K23ac histone peptide (peptide)
peptide: KQLATK(Ac)AARKS
B6: H3(5-23) histone peptide, unmodified (peptide)
peptide: QTARKSTGGKAPRKQLATK

Key:
H3(23-34) = assay: NMR
[1] = target: T1, BRG1 AT-BRD (AT-hook and bromodomain of …); assay: NMR
[2] = target: B1; assay: NMR
[3] = target: T2, hBRM-A AT-BRD (AT-hook and bromodomain …); assay: NMR
[4] = target: T3, hBRM-A BRD (human BRM bromodomain, long …); assay: NMR
[5] = target: T4, hBRM-B AT-BRD (AT-hook and bromodomain …); assay: NMR
[6] = target: T4, hBRM-B AT-BRD (AT-hook and bromodomain …); assay: NMR; Kd,obs, AT-BRD pre-bound to DNAI
[7] = target: T4, hBRM-B AT-BRD (AT-hook and bromodomain …); assay: NMR; pre-bound to DNAI

Kd [1] [µM] | Kd [2] [µM] | Kd [3] [µM] | Binder | further results
– | – | – | B1 | Kd (H3(23-34)): > 16000 µM
> 3000 | > 7000 | > 35000 | B2 | –
– | 2400 | – | B3 | –
940 | – | 810 | B4 | Kd [4]: 880 µM; Kd [5]: 760 µM; Kd [6]: 1120 µM; Kd [7]: 1120 µM
– | 3500 | – | B5 | –
– | > 7000 | – | B6 | –
